Test results reported in US20210147519A1 (Regeneron, published 2021).

B1: H1H20632D (bispecific antibody, V domains shown)
VH 1: EVQLVESGGGLVQPGRSLRLSCTTSGFTFDDYAMHWVRQVPGQGLEWVAGLSWNSDTIGYADSVKGRFTISRDNAKNSLYLQMKSLKAEDTALYYCTKDFYHSLNNWNYYYFDYWGQGTLVTVSS
VH 2: QVQLVESGGGVVQPGRSLRLSCAASGFTFSSYGMHWVRQAPGKGLEWVAVIWYDGSNKNYADSVKGRFTISRDSSKNTLYLQMNSLRAEDTAVYYCARENSEGYYYGMDVWGQGTTVTVSS
VL: not shown
notes: also called anti-IsdB x anti-C1q bispecific antibody
B2: H1H20637D (bispecific antibody, V domains shown)
VH 1: QLQLQESGPGLVKPSETLSLTCTVSGGSISSSSYYWVWIRQPPGKGLEWIGNIYFSGSTYYNPSLKSRVTITVDTSKNQFSLKMTSVTAADTAVYYCARPFYGSRGDYYYGMDVWGQGTTVTVSS
VH 2: EIVMTQSPATLSVSPGERATLSCTASQTINSNLAWYQQRPGQAPRLLIYGASTRATGTPARFRGSGSGTEFTLTISSLLSEDFAVYYCQNYNNWPPGGPRTFGPGTKVDIK
VL: not shown
notes: as for B1
B3: H1H20638D (bispecific antibody, V domains shown)
VH 1: QLQLQESGPGLVKPSETLSLTCTVSGGSISSSSYYWVWIRQPPGKGLEWIGNIYFSGSTYYNPSLKSRVTITVDTSKNQFSLKMTSVTAADTAVYYCARPFYGSRGDYYYGMDVWGQGTTVTVSS
VH 2: DIQMTQSPSSLSASIGDRVTITCRTSQDINNYLAWYQQKPGKVPKLLIFSASTLQSGVPSRFSGSGFGTDFTFIISSLQPEDVATYFCQKYDSGRGLSFGGGTKVEIK
VL: not shown
notes: as for B1
B4: H1H20641D (bispecific antibody, V domains shown)
VH 1: QLQLQESGPGLVKPSETLSLTCTVSGGSISSSSYYWVWIRQPPGKGLEWIGNIYFSGSTYYNPSLKSRVTITVDTSKNQFSLKMTSVTAADTAVYYCARPFYGSRGDYYYGMDVWGQGTTVTVSS
VH 2: QVQLVESGGGVVQPGRSLRLSCAASGFTFSNYGMHWVRQAPGKGLEWLAVIYYDGIKRYYGDSVQGRFIISRDNSKNTLYLQMNSLRDEDTAVYYCARAFSAAGPYNYYYAMDVWGQGTTVTVSS
VL: not shown
notes: as for B1
B5: H1H20642D (bispecific antibody, V domains shown)
VH 1: QLQLQESGPGLVKPSETLSLTCTVSGGSISSSSYYWVWIRQPPGKGLEWIGNIYFSGSTYYNPSLKSRVTITVDTSKNQFSLKMTSVTAADTAVYYCARPFYGSRGDYYYGMDVWGQGTTVTVSS
VH 2: EVQLVESGGGLVQPGGSLRLSCAASGFTFSNYEMNWVRQAPGKGLDWVSYISTSGSVIYYADSVKGRFTISRDNAKNSLYLEMNSLRAEDTAVYYCARGYDFWSGSDYYYGMDVWGQGTTVTVSS
VL: not shown
notes: as for B1

Key:
[1] = target: T1, native human complement component C1q protein purified from human serum (Quidel) (human, UniProt P02745 23-245; P02746 28-253; P02747 29-245); experiment: cell-based or functional assay
T1 sequence (P02745 23-245 limits assumed, chain 1 of 3): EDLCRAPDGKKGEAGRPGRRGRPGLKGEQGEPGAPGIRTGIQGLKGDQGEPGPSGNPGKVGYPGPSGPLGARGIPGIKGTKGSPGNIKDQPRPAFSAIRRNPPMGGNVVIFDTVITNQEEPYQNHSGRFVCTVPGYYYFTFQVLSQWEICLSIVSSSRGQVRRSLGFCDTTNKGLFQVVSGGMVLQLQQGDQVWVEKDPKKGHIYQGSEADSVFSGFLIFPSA
T1 sequence (P02746 28-253 limits assumed, chain 2 of 3): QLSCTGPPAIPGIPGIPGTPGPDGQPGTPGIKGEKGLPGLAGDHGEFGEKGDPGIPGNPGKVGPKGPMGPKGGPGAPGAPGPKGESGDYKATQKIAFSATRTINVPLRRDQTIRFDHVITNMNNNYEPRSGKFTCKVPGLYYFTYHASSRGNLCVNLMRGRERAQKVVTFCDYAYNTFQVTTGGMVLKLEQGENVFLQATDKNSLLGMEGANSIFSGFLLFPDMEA
T1 sequence (P02747 29-245 limits assumed, chain 3 of 3): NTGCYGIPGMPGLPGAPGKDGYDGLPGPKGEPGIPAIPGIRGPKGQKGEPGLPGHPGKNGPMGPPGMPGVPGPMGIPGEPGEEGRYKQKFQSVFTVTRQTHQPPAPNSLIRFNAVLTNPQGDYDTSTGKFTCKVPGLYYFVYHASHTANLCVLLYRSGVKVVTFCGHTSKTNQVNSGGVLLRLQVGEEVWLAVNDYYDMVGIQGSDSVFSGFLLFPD

[2] = target: T1, native human complement component C1q …; experiment: cell-based or functional assay; remark: listed apart in the source
[3] = target: T1, native human complement component C1q …; experiment: cell-based or functional assay; remark: listed apart in the source
[4] = target: T2, IsdB expressed on the surface of S. aureus Wood 46 (Staphylococcus aureus); experiment: ELISA on plate-coated S. aureus Wood 46
T2 construct: whole, on cells
T2 sequence (Q2FZF0 41-613): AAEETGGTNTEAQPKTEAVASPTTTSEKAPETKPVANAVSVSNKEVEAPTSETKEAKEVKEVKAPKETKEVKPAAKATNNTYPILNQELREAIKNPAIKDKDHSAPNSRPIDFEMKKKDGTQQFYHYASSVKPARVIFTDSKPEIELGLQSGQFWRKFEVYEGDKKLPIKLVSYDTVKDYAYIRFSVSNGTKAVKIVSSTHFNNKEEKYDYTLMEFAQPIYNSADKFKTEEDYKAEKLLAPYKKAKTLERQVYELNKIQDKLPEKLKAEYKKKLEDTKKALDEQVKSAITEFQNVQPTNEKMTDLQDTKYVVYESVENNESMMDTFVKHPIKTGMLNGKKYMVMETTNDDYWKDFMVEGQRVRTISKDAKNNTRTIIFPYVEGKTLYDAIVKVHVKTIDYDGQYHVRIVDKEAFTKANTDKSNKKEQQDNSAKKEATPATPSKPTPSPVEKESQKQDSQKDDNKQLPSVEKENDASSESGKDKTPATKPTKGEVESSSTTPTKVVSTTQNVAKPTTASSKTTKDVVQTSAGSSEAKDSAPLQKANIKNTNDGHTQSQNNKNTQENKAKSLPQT

[5] = target: T1, native human complement component C1q …; experiment: SPR Biacore, captured Ab, hC1q analyte, 25C
[6] = target: T1, native human complement component C1q …; experiment: SPR Biacore, captured Ab, hC1q analyte, 37C
[7] = target: T3, Recombinant bacterial IsdB expressed with a hexahistidine tag (IsdB-6xHis; REGN2655) (Staphylococcus aureus, UniProt A6QG30 42-613); experiment: SPR Biacore, captured Ab, IsdB-6xHis analyte, 25C
T3 sequence (A6QG30 42-613, tags left off): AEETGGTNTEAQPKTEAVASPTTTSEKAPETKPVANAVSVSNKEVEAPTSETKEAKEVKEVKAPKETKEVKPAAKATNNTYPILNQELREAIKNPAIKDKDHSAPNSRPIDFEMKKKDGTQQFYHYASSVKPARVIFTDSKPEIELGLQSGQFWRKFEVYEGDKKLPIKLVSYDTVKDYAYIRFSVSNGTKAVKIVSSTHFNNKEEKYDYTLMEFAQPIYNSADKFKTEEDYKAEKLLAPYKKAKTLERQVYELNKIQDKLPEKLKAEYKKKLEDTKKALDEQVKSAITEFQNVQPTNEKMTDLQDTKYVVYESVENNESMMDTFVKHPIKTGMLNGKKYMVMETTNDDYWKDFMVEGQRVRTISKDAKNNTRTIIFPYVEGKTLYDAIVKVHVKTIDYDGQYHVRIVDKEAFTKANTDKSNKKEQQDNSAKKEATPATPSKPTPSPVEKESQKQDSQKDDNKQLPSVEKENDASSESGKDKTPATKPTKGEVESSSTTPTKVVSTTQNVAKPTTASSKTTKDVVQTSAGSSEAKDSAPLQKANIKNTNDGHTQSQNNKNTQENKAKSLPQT

[8] = target: T3, Recombinant bacterial IsdB expressed …; experiment: SPR Biacore, captured Ab, IsdB-6xHis analyte, 37C
[9] = target: T1, native human complement component C1q …; experiment: competition ELISA, 6 nM biot-hC1q, competitor plate-coated hIgM
[10] = target: T1, native human complement component C1q …; experiment: competition ELISA, 6 nM biot-hC1q, competitor plate-coated hIgG2-k
[11] = target: T1, native human complement component C1q …; experiment: competition ELISA, 30 pM biot-hC1q, competitor plate-coated hIgG1-k
[12] = target: T1, native human complement component C1q …; experiment: competition ELISA, 30 pM biot-hC1q, competitor plate-coated hIgG3-k

Binder | Classical Pathway hemolysis assay % inhibition [1] | inhibition of CDC of Daudi cells, IC50 [M] [2] | inhibition of CDC of Daudi cells, Max % Inhibition [2] | C1q deposition on S. aureus Cowan I EC50 [3] | EC50 [4] | Kd [5] | koff [5] | kon [5] | t½ [5] | Kd [6] | koff [6] | kon [6] | t1/2 [6] | Kd [7] | koff [7] | kon [7] | t½ [7] | Kd [8] | koff [8] | kon [8] | other results
B1 | 100% | 2.3e-07 M | ≥ 99% | 0.529 nM | 1.08 nM | 0.294 nM | 0.00318 s⁻¹ | 1.08e+07 M⁻¹ s⁻¹ | 3.64 min | 0.175 nM | 0.00871 s⁻¹ | 4.99e+07 M⁻¹ s⁻¹ | 1.33 min | 2.21 nM | 0.000255 s⁻¹ | 115000 M⁻¹ s⁻¹ | 45.2 min | 3.41 nM | 0.000527 s⁻¹ | 154000 M⁻¹ s⁻¹ | Classical Pathway hemolysis assay IC50 [1]: 1.78 nM; t1/2 [8]: 21.9 min; % Blockade with 600 nM bispecific Ab [9]: 97%; IC50 [9]: 18 nM; % Blockade with 600 nM bispecific Ab [10]: 88%; IC50 [10]: 23 nM; % Blockade with 30 nM bispecific Ab [11]: 90%; % Blockade with 30 nM bispecific Ab [12]: 86%; IC50 [12]: 83 nM
B2 | 50% | > 1e-07 M | 67% | 5 nM | 11.3 nM | 1.54 nM | 0.0124 s⁻¹ | 8.01e+06 M⁻¹ s⁻¹ | 0.93 min | 2.33 nM | 0.0407 s⁻¹ | 1.75e+07 M⁻¹ s⁻¹ | 0.28 min | 9.34 nM | 0.000468 s⁻¹ | 50100 M⁻¹ s⁻¹ | 24.7 min | 17.4 nM | 0.00149 s⁻¹ | 85100 M⁻¹ s⁻¹ | t1/2 [8]: 7.78 min; % Blockade with 600 nM bispecific Ab [9]: 88%; IC50 [9]: 71 nM; % Blockade with 600 nM bispecific Ab [10]: 70%; IC50 [10]: 100 nM; % Blockade with 30 nM bispecific Ab [11]: -3%; % Blockade with 30 nM bispecific Ab [12]: -2%
B3 | 24% | 1e-07 M | ≥ 99% | 2.55 nM | 10.4 nM | 1.28 nM | 0.00511 s⁻¹ | 4.01e+06 M⁻¹ s⁻¹ | 2.26 min | 1.98 nM | 0.011 s⁻¹ | 5.53e+06 M⁻¹ s⁻¹ | 1.05 min | 10.8 nM | 0.000498 s⁻¹ | 46200 M⁻¹ s⁻¹ | 23.2 min | 17.8 nM | 0.00144 s⁻¹ | 80900 M⁻¹ s⁻¹ | t1/2 [8]: 8.03 min; % Blockade with 600 nM bispecific Ab [9]: 28%; % Blockade with 600 nM bispecific Ab [10]: 33%; % Blockade with 30 nM bispecific Ab [11]: -30%; % Blockade with 30 nM bispecific Ab [12]: -25%
B4 | 0% | > 1e-06 M | 33% | 1.29 nM | 10.3 nM | 0.154 nM | 0.00068 s⁻¹ | 4.38e+06 M⁻¹ s⁻¹ | 17.1 min | 0.18 nM | 0.00027 s⁻¹ | 1.5e+06 M⁻¹ s⁻¹ | 42.9 min | 6.02 nM | 0.000438 s⁻¹ | 72800 M⁻¹ s⁻¹ | 26.4 min | 14.7 nM | 0.00141 s⁻¹ | 95900 M⁻¹ s⁻¹ | t1/2 [8]: 8.19 min; % Blockade with 600 nM bispecific Ab [9]: 14%; % Blockade with 600 nM bispecific Ab [10]: 19%; % Blockade with 30 nM bispecific Ab [11]: -17%; % Blockade with 30 nM bispecific Ab [12]: -13%
B5 | 99% | 1e-08 M | ≥ 99% | 0.00586 nM | 8.57 nM | 0.0114 nM | 0.000196 s⁻¹ | 1.72e+07 M⁻¹ s⁻¹ | 58.9 min | 0.0501 nM | 0.000412 s⁻¹ | 8.23e+06 M⁻¹ s⁻¹ | 28 min | 8.26 nM | 0.000501 s⁻¹ | 60700 M⁻¹ s⁻¹ | 23 min | 16.7 nM | 0.00141 s⁻¹ | 84600 M⁻¹ s⁻¹ | Classical Pathway hemolysis assay IC50 [1]: 0.106 nM; t1/2 [8]: 8.19 min; % Blockade with 600 nM bispecific Ab [9]: 72%; IC50 [9]: 3.9 nM; % Blockade with 600 nM bispecific Ab [10]: 80%; IC50 [10]: 5 nM; % Blockade with 30 nM bispecific Ab [11]: 71%; IC50 [11]: 0.11 nM; % Blockade with 30 nM bispecific Ab [12]: 96%; IC50 [12]: 0.37 nM
